According to the domain aggregation screens of Martell et al. (2025):

test: soluble fraction after stress (log2 fold change); higher = more stays soluble; pooled small domains, quantitative proteomics; conditions: stress: 50 degC
In short: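 Pooled custom libraries of small protein domains were measured in a high-throughput format, with quantitative proteomics as the read-out. Each library was stressed at 50°C. Aggregation propensity is given as the base-two logarithm of the fold change in how much of each protein stays soluble after the stress. Higher values mean a larger share of the protein remains in solution.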

Going from “HMFNEFEDIPDIISAEGIDPAMREEVAANLKKYYKNPDAMLALAPLEREYYEKLVGILSEKIELKKEN” to “HMHLTEAPLIKITYFEADQKKSGGQYITIINHLKKINEYENLLVLENGVKINIDDIYELESV”, the “soluble fraction (log2)” value falls from 0.563 to -0.132.

“HMNNPLPDLLKYFRKKKHLTQEQVAKQLSVSRASYASYETGRIIPGMQHIMELSRILEHDFLFAYTLAVQ” and “HMGIAWGMLREQVAASDVSYRSEVLDILDRTPVWIYDAEGKIVDGRKKRLMDLQGGEPYRHMLEHFFPDLR” are within 0.2 log units of each other in “soluble fraction (log2)” value: -2.34 for the first, -2.48 for the second.

Compared with “HMDPLGGFTKGDVDMDGRVAVNDAVMVLKNAIKLMELDTQQLMLADADNDGKITVNDAVMILKKAIKLID”, “HMISDDLYQAVLDFTLTQDTISISRLQQNFNLGWPRARQLYDQLMQNGIIEPPDEANSAKGAVVIANKRG” is higher in “soluble fraction (log2)” value: -0.111 for the first, 0.46 for the second.

“HMGTITKRTNPSGAVVWRAQIRINKADMPTYSESKTFSKKSLATEWLKRREAEIEANPDLIL” and “HMGTFIATVEANSLDIYKSMSSNETIGKANKGEVFQILEDMGSGYARVSYNDVEGYLSIRDGDATIEE” are within 0.2 log units of each other in “soluble fraction (log2)” value: -0.348 for the first, -0.356 for the second.

Compared with “HMAFRWQQIADTITSMIANGSYPRGSRLPTEAALADSFGVNRHTVRRAVAALRDTGLVQPRQGAGVFVIG”, “HMPASVSAIRKYLGGGSFKGVGPALAKRIVDAFGEYTIETIENDPKQLAKVKGVSEKMALEINTQ” is higher in “soluble fraction (log2)” value: -1.55 for the first, -0.0317 for the second.

Compared with “HMEPELLTTKQVASVMNIGEERARAILLSRGVQPVSLPWGKERKTLRWSRRAVMTVIDTLHAEAQAKAGV”, “HMKRYLFEEVLAFLKHNDGKSFNYKQLGAAMEIDNESDRFALLETLEELKHQGFVIETDIGKYAAKE” is higher in “soluble fraction (log2)” value: -0.582 for the first, -0.324 for the second.

Compared with “HMVLSPAQVRRALMVSGLFTEARVARQLGVPMDLKQILRIILRNTPPQSAMARELESAIDEIESRNAMRD”, “HMRLTIAQLSEKTGVPERTIRYYIDRGLVPSAHGERRGAWYDTVHLEPLLRIQQWREAGLSLEAIADLLR” is higher in “soluble fraction (log2)” value: -1.62 for the first, -1.19 for the second.

Going from “HMIQAGDLVFIWNPKKGDNFLIKVTPGMSQGTHFGQIKHTELMEREYGEGIVTPKGEVYYLLRPTLAGYTR” to “HMTGSLRIKHKTYYMLFSWKDESGQWRQKSESTGIPERGGKRKAQEMLNTRLEELQLQSTASL”, the “soluble fraction (log2)” value falls from -0.973 to -3.75.

First: HMTRYEQLAAQIRQQIEDNIWQSGDRLPSLRDTVKQSGLSLMTVLQSYQLLESQGWITARPQSGYYVAHR
Second: HMAEAAVELSQQILARLLEAGGSLPLSDKSSPEDIHRLFGVSKRTFKKAIGGLYKKGLILIHPERIELP
The “soluble fraction (log2)” value of the first is higher: 0.348 for the first, -0.588 for the second.

Going from “HMPQLSNEEQKIVDALEGSDGKQINLITVETNIPMARLMSVLFEMEMRGIVKSLNGARYKLN” to “HMGDDYFTILGIERDATTDEIRSAYRRLSKKIHPDAQGSSALFRQVQEAYETLIDPSSRARYVAELNASQG”, the “soluble fraction (log2)” value rises from -0.163 to 0.113.

Going from “HMSAHDLQVVLRWIGTDEPMTDQRYRITTEDGRTFEGRTDDAGLTERVASTIPFGRYSIEALD” to “HMDSFEEGTYRKNQRGFGFVKIENQEDEIFISKENSLNALNGDRVIVEIIEDKDRTKRAEGKIKKILKHE”, the “soluble fraction (log2)” value rises from -0.441 to 0.201.

“HMENNNIAFSKFLEEVDSGRVVQVEIQGNNISGTLSDGSKFKTYSPNYPDLVSKLSEKNVSIIASPV” and “HMSTPTVDTKTKLDLYNLLYKKDLNYLDAYNFVLDNFGSDNIDIMFKMLGLDFTNWVIENKPE” are within 0.2 log units of each other in “soluble fraction (log2)” value: 0.115 for the first, 0.0375 for the second.

Compared with “HMDSVAKSFLAEIERFLETAGLEPTTLGKQALGDPSFVFDLRKGRSPSTRTIGKLRVWMQQQNALS”, “HMSGVSESIEKKIQYLLLEKPLPLHDLIEAIEIGKEEDRLKVLRSLMDSDTVKIEDDLYHWNA” is higher in “soluble fraction (log2)” value: -1.2 for the first, -0.0841 for the second.

Going from “HMAKYEVVAKDIISRIKQNEFETTLKLPTEDEMIEYYQVSRNTVRSALKLLTSQGIIFSRQGSGFYIRQRS” to “HMHVVVIDKQGALSYQGKAITLLDLKNIVIDVPKETPFLIKADKDIHLQSFVEVLDLIKTAGFKKVSLQ”, the “soluble fraction (log2)” value rises from -0.677 to -0.182.

First: HMTKLLITNYERNVLINSYLLKNTPELDDIRRLLVHNKHISENDVSTEMARRIKKHKADWLRVT
Second: HMPLTRSDVKRIQLWLMAHGYDIGSPDGVFGDKSNRAANAFLSQQGRSLETVTLGKLYDILEAN
The “soluble fraction (log2)” value of the first is lower: -2.71 for the first, -2.01 for the second.
